Consider 14 sequences from a protein production outcome set (Wang et al. 2014).

The series in a line: label from the status in PepcDB records.
As to “MESFSSKSLALQAEKKLLSKMAGRSVAHLFIDETSSEVLDELYRVSKEYTHSRPQAQRVIKDLIKVAIKVAVLHRNGSFGPSELALATRFRQKLRQGAMTALSFGEVDFTFEAAVLAGLLTECRDVLLELVEHHLTPKSHGRIRHVFDHFSDPGLLTALYGPDFTQHLGKICDGLRKLLDEGKL”, the protein production result is reported as “failed”.

As to “MESIEQQLTELRTTLRHHEYLYHVMDAPEIPDAEYDRLMRELRELETKHPELITPDSPTQRVGAAPLAAFSQIRHEVPMLSLDNVFDEESFLAFNKRVQDRLKNNEKVTWCCELKLDGLAVSILYENGVLVSAATRGDGTTGEDITSNVRTIRAIPLKLHGENIPARLEVRGEVFLPQAGFEKINEDARRTGGKVFANPRNAAAGSLRQLDPRITAKRPLTFFCYGVGVLEGGELPDTHLGRLLQFKKWGLPVSDRVTLCESAEEVLAFYHKVEEDRPTLGFDIDGVVIKVNSLAQQEQLGFVARAPRWAVAFKFPAQEQMTFVRDVEFQVGRTGAITPVARLEPVHVAGVLVSNATLHNADEIERLGLRIGDKVVIRRAGDVIPQVVNVVLSERPEDTREVVFPTHCPVCGSDVERVEGEAVARCTGGLICGAQRKESLKHFVSRRAMDVDGMGDKIIDQLVEKEYVHTPADLFKLTAGKLTGLERMGPKSAQNVVNALEKAKETTFARFLYALGIREVGEATAAGLAAYFGTLEALEAASIEELQKVPDVGIVVASHVHNFFAEESNRNVISELLAEGVHWPAPIVINAEEIDSPFAGKTVVLTGSLSQMSRDDAKARLVELGAKVAGSVSKKTDLVIAGEAAGSKLAKAQELGIEVIDEAEMLRLLGS”, the protein production result is “not failed”.

Consider “MESITLDIELLQLPETSPMSMKSNQDFVKKLFDQWLALPETNRLVTSLVNDAKAGVALNVMCGGGSSGTNSGSNSPLASMFPARNGPPLSPRNSTGSPRIARQRTGLSNLSSPLKVVSDHVKELIPQFYFEDGRPPPNDLKEQCIAKINSLFYGHEDGLQLQEFKLVTTEICKVPSFFSTSIFKKVDTNNTGFVKREDFIDYWVKGNMLTKEITSQVFTILKQPDHNYLVQDDFKPVLQELLATHPGLEFLQGTPEFQDRYAETVIYRIYYYINRSGNGHLTLRELKRGNLVDAMQHADEEEDINKVLRYFSYEHFYVIYCKFWELDTDHDFLIDKENLIRYSNHALTYRIVDRIFSQVPRKFTSKTEGKMGYEDFVYFILAEEDKSSEPSLEYWFKCIDLDANGVLTRNELQFFYEEQLHRMECMAQEAVLFEDILCQLFDMVKPEDEGFICLNDLKGSKLSGNVFNILFNLNKFMAFETRDPFLIRQERANPTWTEWDRFAHREYIRLSMEEDVEDASNGSAEAWDDSLEVPF”, for which the protein production result is recorded as “failed”.

On to “MESLIGLVNRIQRACTVLGDYGGGTGSNAFNSLWEALPTVAVVGGQSSGKSSVLESIVGRDFLPRGSGIVTRRPLVLQLHKTDDGTEEYAEFLHLPKKQFTDFALVRREIQDETDRITGKNKQISPVPIHLSIYSPNVVNLTLIDLPGLTKVAVEGQPETIAEDIESMVRTYVDKPNCIILAISPANQDIATSDAIKLAKDVDPTGERTFGVLTKLDLMDKGTNALEVLEGRSYRLQHPWVGIVNRSQADINKNVDMMLARRKEREYFDTSPDYGHLASKMGSEYLAKLLSKHLESVIRTRIPSILSLINKSIEELERELDRMGRPVAVDAGAQLYTILEMCRAFDKIFKEHLDGGRPGGDRIYGVFDNQLPAALKKLPFDRHLSLQSVKKIVSEADGYQPHLIAPEQGYRRLIEGALGYFRGPAEASVDAVHYVLKELVRKSISETEELKRFPSLQVELAAAANSSLEKFREESKKSVIRLVDMESAYLTAEFFRKLPQEIERPVTNSKNQTASPSSATLDQYGDGHFRRIASNVSAYVNMVSDTLRNTIPKACVYCQVRQAKLALLNYFYSQISKREGKQLGQLLDEDPALMDRRLECAKRLELYKKARDEIDAVAWVR”, for which the protein production result is “failed”.

Regarding “MESLLRADQTLIPGAMCSRRVWTHSELALPSVSVTELDLVRGLLQALQGLSSPFLFWDQTGQTFRAKSHIRVSHLSHSSLHVLLAGFLYPATCLKLVESIVAAINTSLRSPPTLMAFSDSVSAWLEANIALKEEVMIDNSDITVTPTLLGLTSAEYLLQVVHGAIPHTFFDSNSTISAAEIAVHVLDYLYKKLDEVCLVQGGEVEGFHMLLQMFAGSLLPYIEGLDSWLFEGTLDDPCEELFFTANQSVSVDDAEFWEKSYQLMKVPNSKSNVTSLNEKKVMSGHDANSSLASDKDKEQNTRVLCPLFIKDICKSIVSAGKSLQLMQHIPSTSSENSGKTQFHGRNGYGKSSVGSLLTKMSSCSSTADLSLSEVFCLTLAGLIGHGDHVSRYLWKDEADEWEISPTLASYISGELVNDMDNKDLPVLTCSERMWYKLLVGAVQEKRAMEAKSELQSACYATGVKDGNSGLTAQKALQGLFCNENLVVSVSKMDLERNRNAWNVLNLSQNYCLPSLNDESLLSAVFEESGMADAGLSGTNYKFGFQFGRSEYISSQDDTNLLETLFPFPTLLPSFQAEPMDTRLPVVIMQECFTIYIRRQVDYIGKVILSKLMNDWKLMHELAVLRAIYLLGSGDLLQHFLTVIFDRLGKGESSNDDFELNIILQESIRNSADAMLLSSPDSLVVSISREDRDKDDKGDIIPLSSTRKSRVNSFGIDCLESLKFTYKVPWPLELIANSEAIKKYNQVKRAKYVLDKARRWMWKGKGSATKIRKHHWLLEQKLLNFVDAFHQYVMDRVYHTAWRELCEAMVKAGSLDEVIYVHETYLLSIQRQCFVVQEKLWAIIASRINMILGLALEFYSIQQTLSSGGAVSAIKARCEMEIDRIEKQFEDCIAFLLRVLSSKLNVGHFPHLADLVTRINYNYHYMSDTGSLMTTSGAETNSSRPWTAKSDV”, the protein production entry is recorded as “failed”.

For “MESPHAADPEGIDPQVVELATTIFALARAGDTASLDAYIRAGVPANLTNDQGDTLVMLAAYYGHADTVECLCRHGADVNRLNDRGQSPLAGAVFKDEDAVVKTLLAHGADPTLGQPSAIDTARMFGKEHYLELFDNA”, the protein production entry is given as “failed”.

Regarding “MESPTQTSEHIESMTEFLVKHYPDQLREISLSSDPKLHYPLFIEYAELVDDNPSLARQVFSDPEHYLRQFDDSAILAHKIALEHMKKFEEKIGIEKRFIHVRINTSGSPLERSPETFPSIGRVRVKHRGILMMLKGTVIRSGAVKMYEGEKMYRCRKCKHMFPIFPELESINSIVKPPFCPSQRSKACEGTNFDPVDDTVTRHDYQEIKIQENTQVLGVGVIPRSILVVLKDDLVDNVKAGDDVVVSGILTSKWSHDLKDVRCDLEPMLIANHVRRTNELKSEIDISDDLIEKFKNFWSHFRDTPLKGRNAILRGICPQVFGLFTVKLAVALTLIGGVQHVDASGTKVRGESHLLLIGDPGTGKSQFLKFAAKLSNRAVITTGLGSTSAGLTVTAVKDGGEWMLEAGALVLADGGLCCIDEFDSMREHDRATIHEAMEQQSISVAKAGLVTTLSTKTIVFGATNPKGQYDPDQYTKNPEWDAVVSSHILAEVQIEQDREVDDLTTIWPLPMLQRYIQFVKKNFRPVLSKEAEEIISSYYRLQRRSSTHNAARTTVRMLESLIRLAQGTSSVIVFINQNTPKTGTKERILMVLWCHAAHARLMFRNEVTRLDAITAILCIESSMTISAIVDSMGNALHSNFSEEPDQECILFRH”, the protein production result is “failed”.

As for “MESQLTLITLTLVIATIFGVALSRFRISPIPAYLIAGLLGKSFGLDYSSDLFNFLSTLAINLVSFNVGISLDIRELKNILSKATIIAITEYIVGFTIISIISLIIGLPFYDTFILTIISVTTSTTITYKLIQNKIDDKQSGLILAVLSLEDVITFIALGVILSSNSNIVEIIPTSLASLGLGYLVSRTIINRSINTSEESVIISSIASVLSFSLLGQIFDIPSTLANFLLGLGASYALKDTKKVSRILSPLIDFSLIFFFFSAGSYLNLSLSSLYVLVPISLIMTLVKYLSFSTSYWLTGSNFLVAFRSGIYMTSLSELGIIVALNAFQQGIITSLVYNLSAFLVMMSSTITSITVPRERRIIGLISKTYEKLRIDRIDGALQRITRVVKLNRNTTSNFILRFILIGLITIFSASYLLIFLVSFARFFIYIAPLISVLVPFLLALLVIEETRRLSNLGQKRINEIILWIIYVFITINFEIFIVRIISELNYYVIYLGILVSIIVIVIMYQRLNTFIKELDKSL”, the protein production result is listed as “failed”.

Turning to “MESSKKMDSPGALQTNPPLKLHTDRSAGTPVFVPEQGGYKEKFVKTVEDKYKCEKCHLVLCSPKQTECGHRFCESCMAALLSSSSPKCTACQESIVKDKVFKDNCCKREILALQIYCRNESRGCAEQLTLGHLLVHLKNDCHFEELPCVRPDCKEKVLRKDLRDHVEKACKYREATCSHCKSQVPMIALQVSLLQNESVEKNKSIQSLHNQICSFEIEIERQKEMLRNNESKILHLQRVIDSQAEKLKELDKEIRPFRQNWEEADSMKSSVESLQNRVTELESVDKSAGQVARNTGLLESQLSRHDQMLSVHDIRLADMDLRFQVLETASYNGVLIWKIRDYNRRKQEAVMGKTLSLYSQPFYTGYFGYKMCARVYLNGDGMGKGTHLSLFFVIMRGEYDALLPWPFKQKVTLMLMDQGSSRRHLGDAFKPDPNSSSFKKPTGEMNIASGCPVFVAQTVLENGTYIKDDTIFIKVIVDTSDLPDP”, the protein production result is reported as “not failed”.

Consider “MESTKSNDIPILRNVSDSFSDHYGKYLQRCGIFVPKDGDSSGPDAYVVFHNGQTRYVVAFSFTFYHKTEFSKRDIEKEAEQFFQEVISVLNDGSPSSVQLCFQFVVVCTRYDRSVVFSSEEQNIVEDASYLVTEHSAGSTLNESRRSCLQLVVVSQRNLERFLGRENFDILRKIGKASREEFRKDFSVWCKTVFESMSDEYVSPLEAKPFNVTLRVARNIRPRTNEENRMQMEGFQTAMQVEEGNTRGEQRVAASSSLSSSFDWNTFLREYCGLSEEDVAYCLPKVEDIDMDELPAVTKEILRDLGIDKPALRLKIRSSIRSYLANER”, for which the protein production entry is “failed”.

Regarding “MESVKTGKTNKVGKNTEMANTKANKETHFKQVSAITNIIRSVGGFFTKIAKRVRGLVKKHPKKSSAALVVLTHIACKKAKELDDKVQDKSKQAEKENQINWWKYSGLTIAASLLLAACSAGDTDKQIELEQEKKEAENARDRANKSGIELEQERQKTNKSGIELANSQIKAEQERQKTEQEKQKANKSAIELEQQKQKTINTQRDLIKEQKDFIKETEQNCQENHNQFFIKKLGIKGGIAIEVEAECKTPKPAKTNQTPIQPKHLPNSKQPHSQRGSKAQEFIAYLQKELEFLPYSQKAIAKQVNFYKPSSIAYLELDPRDFKVTEEWQKENLKIRSKAQAKMLEMRDLKPDPQAHLPTSQSLLFVQKIFADVNKEIEAVANTEKKAEKAGYGYSKRM”, the protein production entry was “failed”.

For “MESVYLFSSGTLKRKANTICLETESGRKYIPVENVMDIKVFGEVDLNKRFLEFLSQKRIPIHFFNREGYYVGTFYPREYLNSGFLILKQAEHYINQEKRMLIAREIVSRSFQNMVDFLKKRKVRADSLTRYKKKAEEASNVSELMGIEGNAREEYYSMIDSLVSDERFRIEKRTRRPPKNFANTLISFGNSLLYTTVLSLIYQTHLDPRIGYLHETNFRRFSLNLDIAELFKPAVVDRLFLNLVNTRQINEKHFDEISEGLMLNDEGKSLFVKNYEQALRETVFHKKLNRYVSMRSLIKMELHKLEKHLIGEQVFGSEE”, the protein production entry was “not failed”.

In the case of “METAICGRLALAPSSLFNSKSGDKHLVSKGPCVNRSILMTLSTSAALGKGGGVLDKPIIEKTTPGRESEFDLRKSKKIAPPYRVILHNDNFNKREYVVQVLMKVIPGMTVDNAVNIMQEAHINGLAVVIVCAQADAEQHCMQLRGNGLLSSVEPDGGGC”, the protein production entry was “failed”.

Take “METLLIQQTEKSNKFWKIVVKEKDYVVFYGKIGTAGSVKAKEFETEEECMNEANKLVASKRKKGYIDPLPGEDYIKEKTITEEEFWELLHRAKTKGEDQEEQIEWLTSHLAKRTVHEIVAFDTHMHSLLKDSYTSRLWAAAYIIMGGCSDDTFDYFRGWLLYQGKETYEACIEDPERLIPVLENLSEYDVPEIEELSLYFGFTVYAEKTGDEDDTYFTLYHVLSNEEFDDVDFEFDWNEDDEEGLKKVFPRLWEMYGEEPIEWLEHHHHHH”: the protein production result is “not failed”.
